Laboratory results published in US20230002460A1 (YUHAN, published 2023).

Each binder was assayed against GDF15 receptors GFRAL and RET, overexpressed together on HEK293 cells (UniProt Q6UXV0 19-394; P07949 29-1114, limits assumed) (assay: cell-based or functional assay).
Chain of GDF15 receptors GFRAL and RET, overexpressed together on HEK293 cells (Q6UXV0 19-394 limits assumed, chain 1 of 2): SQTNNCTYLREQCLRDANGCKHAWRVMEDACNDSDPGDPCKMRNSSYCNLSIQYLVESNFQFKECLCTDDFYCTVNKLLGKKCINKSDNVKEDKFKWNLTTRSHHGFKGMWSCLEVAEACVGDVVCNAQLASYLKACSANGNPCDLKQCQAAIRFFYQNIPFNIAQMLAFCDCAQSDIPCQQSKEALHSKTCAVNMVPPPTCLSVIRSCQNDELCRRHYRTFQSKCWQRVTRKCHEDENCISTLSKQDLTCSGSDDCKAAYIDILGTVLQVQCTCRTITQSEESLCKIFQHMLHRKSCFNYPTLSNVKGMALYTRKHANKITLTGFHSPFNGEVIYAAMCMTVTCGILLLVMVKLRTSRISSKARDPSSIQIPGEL
Chain of GDF15 receptors GFRAL and RET, overexpressed together on HEK293 cells (P07949 29-1114 limits assumed, chain 2 of 2): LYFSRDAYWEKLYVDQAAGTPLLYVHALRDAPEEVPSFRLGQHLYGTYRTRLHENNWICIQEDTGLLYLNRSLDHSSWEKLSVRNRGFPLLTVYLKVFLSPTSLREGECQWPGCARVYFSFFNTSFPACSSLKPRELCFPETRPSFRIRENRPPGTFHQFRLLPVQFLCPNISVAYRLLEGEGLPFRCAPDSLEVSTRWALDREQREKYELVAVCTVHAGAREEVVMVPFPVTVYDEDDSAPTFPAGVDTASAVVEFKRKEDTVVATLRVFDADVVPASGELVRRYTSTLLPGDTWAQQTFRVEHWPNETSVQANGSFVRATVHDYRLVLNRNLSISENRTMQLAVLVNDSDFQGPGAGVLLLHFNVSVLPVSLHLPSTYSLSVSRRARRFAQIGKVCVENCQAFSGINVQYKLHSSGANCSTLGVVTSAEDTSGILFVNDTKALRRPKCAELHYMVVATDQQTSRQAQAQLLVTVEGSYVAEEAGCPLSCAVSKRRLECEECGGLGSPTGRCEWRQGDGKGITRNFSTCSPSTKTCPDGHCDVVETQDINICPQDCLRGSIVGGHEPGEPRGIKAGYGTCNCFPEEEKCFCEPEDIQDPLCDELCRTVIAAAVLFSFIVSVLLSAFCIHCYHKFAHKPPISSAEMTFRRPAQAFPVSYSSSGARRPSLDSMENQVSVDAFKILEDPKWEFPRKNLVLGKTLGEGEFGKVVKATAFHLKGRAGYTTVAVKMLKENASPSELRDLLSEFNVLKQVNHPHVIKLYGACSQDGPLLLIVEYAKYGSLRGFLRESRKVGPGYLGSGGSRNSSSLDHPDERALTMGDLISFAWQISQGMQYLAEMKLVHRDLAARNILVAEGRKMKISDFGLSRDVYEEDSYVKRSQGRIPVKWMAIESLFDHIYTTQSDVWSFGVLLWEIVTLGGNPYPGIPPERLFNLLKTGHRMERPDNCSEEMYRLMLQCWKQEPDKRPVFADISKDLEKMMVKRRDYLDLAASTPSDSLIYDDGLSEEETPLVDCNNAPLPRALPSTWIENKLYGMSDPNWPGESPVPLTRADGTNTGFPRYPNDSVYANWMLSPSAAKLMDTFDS

Row | Binder | EC50 | Emax (%) [relative to FWT 100%]
1 | long-acting GDF15 fusion protein ΔN2, Q51H (Fc fusion) chain 1: APALAGGPSVFLFPPKPKDTLMISRTPEVTCVVVDVSHEDPEVKFNWYVDGVEVHNAKTKPREEQYNSTYRVVSVLTVLHQDWLNGKEYKCKVSNKALPAPIEKTISKAKGQPREPQVYTLPPSREEMTKNQVSLWCLVKGFYPSDIAVEWESNGQPENNYKTTPPVLDSDGSFFLYSKLTVDKSRWQQGNVFSCSVMHEALHNHYTQKSLSLSPGKGGGGSGGGGSGGGGSGGGGSGGGGSNGDHCPLGPGRCCRLHTVRASLEDLGWADWVLSPREVQVTMCIGACPSHFRAANMHAQIKTSLHRLKPDTVPAPCCVPASYNPMVLIQKTDTGVSLQTYDDLLAKDCHCI chain 2: not shown | 0.0241 µM | 90.8%
2 | long-acting GDF15 fusion protein ΔN2, Q51L (Fc fusion) chain 1: APALAGGPSVFLFPPKPKDTLMISRTPEVTCVVVDVSHEDPEVKFNWYVDGVEVHNAKTKPREEQYNSTYRVVSVLTVLHQDWLNGKEYKCKVSNKALPAPIEKTISKAKGQPREPQVYTLPPSREEMTKNQVSLWCLVKGFYPSDIAVEWESNGQPENNYKTTPPVLDSDGSFFLYSKLTVDKSRWQQGNVFSCSVMHEALHNHYTQKSLSLSPGKGGGGSGGGGSGGGGSGGGGSGGGGSNGDHCPLGPGRCCRLHTVRASLEDLGWADWVLSPREVQVTMCIGACPSLFRAANMHAQIKTSLHRLKPDTVPAPCCVPASYNPMVLIQKTDTGVSLQTYDDLLAKDCHCI chain 2: not shown | 0.0152 µM | 88.6%
3 | long-acting GDF15 fusion protein ΔN2, Q51E (Fc fusion) chain 1: APALAGGPSVFLFPPKPKDTLMISRTPEVTCVVVDVSHEDPEVKFNWYVDGVEVHNAKTKPREEQYNSTYRVVSVLTVLHQDWLNGKEYKCKVSNKALPAPIEKTISKAKGQPREPQVYTLPPSREEMTKNQVSLWCLVKGFYPSDIAVEWESNGQPENNYKTTPPVLDSDGSFFLYSKLTVDKSRWQQGNVFSCSVMHEALHNHYTQKSLSLSPGKGGGGSGGGGSGGGGSGGGGSGGGGSNGDHCPLGPGRCCRLHTVRASLEDLGWADWVLSPREVQVTMCIGACPSEFRAANMHAQIKTSLHRLKPDTVPAPCCVPASYNPMVLIQKTDTGVSLQTYDDLLAKDCHCI chain 2: not shown | 0.0442 µM | 41.9%
4 | long-acting GDF15 fusion protein ΔN2, Q51N (Fc fusion) chain 1: APALAGGPSVFLFPPKPKDTLMISRTPEVTCVVVDVSHEDPEVKFNWYVDGVEVHNAKTKPREEQYNSTYRVVSVLTVLHQDWLNGKEYKCKVSNKALPAPIEKTISKAKGQPREPQVYTLPPSREEMTKNQVSLWCLVKGFYPSDIAVEWESNGQPENNYKTTPPVLDSDGSFFLYSKLTVDKSRWQQGNVFSCSVMHEALHNHYTQKSLSLSPGKGGGGSGGGGSGGGGSGGGGSGGGGSNGDHCPLGPGRCCRLHTVRASLEDLGWADWVLSPREVQVTMCIGACPSNFRAANMHAQIKTSLHRLKPDTVPAPCCVPASYNPMVLIQKTDTGVSLQTYDDLLAKDCHCI chain 2: not shown | 0.0142 µM | 87.8%
5 | long-acting GDF15 fusion protein ΔN2, Q90H (Fc fusion) chain 1: APALAGGPSVFLFPPKPKDTLMISRTPEVTCVVVDVSHEDPEVKFNWYVDGVEVHNAKTKPREEQYNSTYRVVSVLTVLHQDWLNGKEYKCKVSNKALPAPIEKTISKAKGQPREPQVYTLPPSREEMTKNQVSLWCLVKGFYPSDIAVEWESNGQPENNYKTTPPVLDSDGSFFLYSKLTVDKSRWQQGNVFSCSVMHEALHNHYTQKSLSLSPGKGGGGSGGGGSGGGGSGGGGSGGGGSNGDHCPLGPGRCCRLHTVRASLEDLGWADWVLSPREVQVTMCIGACPSQFRAANMHAQIKTSLHRLKPDTVPAPCCVPASYNPMVLIHKTDTGVSLQTYDDLLAKDCHCI chain 2: not shown | 0.0434 µM | 73.2%
6 | long-acting GDF15 fusion protein ΔN2, Q90E (Fc fusion) chain 1: APALAGGPSVFLFPPKPKDTLMISRTPEVTCVVVDVSHEDPEVKFNWYVDGVEVHNAKTKPREEQYNSTYRVVSVLTVLHQDWLNGKEYKCKVSNKALPAPIEKTISKAKGQPREPQVYTLPPSREEMTKNQVSLWCLVKGFYPSDIAVEWESNGQPENNYKTTPPVLDSDGSFFLYSKLTVDKSRWQQGNVFSCSVMHEALHNHYTQKSLSLSPGKGGGGSGGGGSGGGGSGGGGSGGGGSNGDHCPLGPGRCCRLHTVRASLEDLGWADWVLSPREVQVTMCIGACPSQFRAANMHAQIKTSLHRLKPDTVPAPCCVPASYNPMVLIEKTDTGVSLQTYDDLLAKDCHCI chain 2: not shown | 0.0093 µM | 10.5%
